Here are results for one molecule from patent US20130090249A1 (CENTRE NATIONAL DE LA RECHERCHE SCIENTIFIQUE CNRS, published 2013).

One assay has as its target T1, DN-Lingo-1-HA (human, UniProt Q96FE5 42-577).
T1 construct: Residues 1-577 are counted on the 620-amino-acid human Lingo-1 (NP-116197); Expressed in HEK-293 cells; also called DN-HA; HA-tagged dominant negative of Lingo-1
T1 sequence: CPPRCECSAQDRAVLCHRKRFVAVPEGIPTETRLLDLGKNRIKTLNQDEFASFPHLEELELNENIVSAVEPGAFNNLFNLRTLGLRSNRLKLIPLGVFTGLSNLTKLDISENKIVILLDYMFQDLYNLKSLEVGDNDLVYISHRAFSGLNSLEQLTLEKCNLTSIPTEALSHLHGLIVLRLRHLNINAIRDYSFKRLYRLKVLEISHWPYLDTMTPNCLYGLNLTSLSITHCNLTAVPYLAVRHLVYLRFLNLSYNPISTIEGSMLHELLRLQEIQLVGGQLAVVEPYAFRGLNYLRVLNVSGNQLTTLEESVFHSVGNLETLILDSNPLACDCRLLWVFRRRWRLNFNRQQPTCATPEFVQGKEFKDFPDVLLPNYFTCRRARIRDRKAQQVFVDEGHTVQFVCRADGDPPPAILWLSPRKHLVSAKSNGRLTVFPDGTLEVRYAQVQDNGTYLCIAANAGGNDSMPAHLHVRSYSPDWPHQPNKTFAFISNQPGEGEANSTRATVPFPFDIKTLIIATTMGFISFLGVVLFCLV
The assay is described as follows: BRET competition in live HEK-293 cells; the competitor may take the place of either the RLuc or the YFP partner. As for the experimental part:
(§1) HEK-293 cells were transfected with the Lingo-1-RLuc and Lingo-1-YFP fusion proteins (the donor/acceptor ratio remains constant) and increasing concentrations of the whole Lingo-1 protein (Lingo-1-HA, amino acids 1-620) or the dominant negative thereof (DN-HA, amino acids 1-577) tagged with HA. The BRET measurement was carried out 48 hours after the transfection on live cells.
(§2) The BRET signal obtained between the Lingo-1-RLuc and Lingo-1-YFP proteins is therefore specific and can be modulated. […] In addition, when increasing concentrations of HA-tagged Lingo-1 protein were added (Lingo-1-HA at 0, 200, 400, 800, 1600 and 2600 ng), the BRET signal decreased (FIG. 5b); thereby making it possible to plot inhibition curves.
Background: In BRET a luciferase serves as donor, and the signal depends on an acceptor being close.

Another assay deals with T2, Lingo-1-HA (human, UniProt Q96FE5 42-620).
T2 construct: also called Lingo-HA; HA-tagged whole Lingo-1 protein
T2 sequence: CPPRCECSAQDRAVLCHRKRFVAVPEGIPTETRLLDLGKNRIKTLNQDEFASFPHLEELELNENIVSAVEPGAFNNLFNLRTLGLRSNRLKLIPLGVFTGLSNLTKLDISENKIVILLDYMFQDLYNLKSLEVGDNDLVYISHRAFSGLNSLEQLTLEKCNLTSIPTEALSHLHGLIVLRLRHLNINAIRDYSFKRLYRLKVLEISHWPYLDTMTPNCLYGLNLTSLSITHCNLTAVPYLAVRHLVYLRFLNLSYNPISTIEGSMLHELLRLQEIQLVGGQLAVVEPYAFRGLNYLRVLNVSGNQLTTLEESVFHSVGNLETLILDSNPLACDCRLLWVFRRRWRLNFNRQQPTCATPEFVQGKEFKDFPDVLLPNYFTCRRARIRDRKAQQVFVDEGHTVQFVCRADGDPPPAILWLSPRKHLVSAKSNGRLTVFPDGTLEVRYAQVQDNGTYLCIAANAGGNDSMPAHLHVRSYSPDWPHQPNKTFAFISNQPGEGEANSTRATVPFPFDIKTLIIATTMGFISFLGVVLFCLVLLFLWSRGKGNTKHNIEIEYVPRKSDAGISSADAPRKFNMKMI
Described as above. The method, then:
as §1, §2

B1: Lingo-1-RLuc (other)
chain: CPPRCECSAQDRAVLCHRKRFVAVPEGIPTETRLLDLGKNRIKTLNQDEFASFPHLEELELNENIVSAVEPGAFNNLFNLRTLGLRSNRLKLIPLGVFTGLSNLTKLDISENKIVILLDYMFQDLYNLKSLEVGDNDLVYISHRAFSGLNSLEQLTLEKCNLTSIPTEALSHLHGLIVLRLRHLNINAIRDYSFKRLYRLKVLEISHWPYLDTMTPNCLYGLNLTSLSITHCNLTAVPYLAVRHLVYLRFLNLSYNPISTIEGSMLHELLRLQEIQLVGGQLAVVEPYAFRGLNYLRVLNVSGNQLTTLEESVFHSVGNLETLILDSNPLACDCRLLWVFRRRWRLNFNRQQPTCATPEFVQGKEFKDFPDVLLPNYFTCRRARIRDRKAQQVFVDEGHTVQFVCRADGDPPPAILWLSPRKHLVSAKSNGRLTVFPDGTLEVRYAQVQDNGTYLCIAANAGGNDSMPAHLHVRSYSPDWPHQPNKTFAFISNQPGEGEANSTRATVPFPFDIKTLIIATTMGFISFLGVVLFCLVLLFLWSRGKGNTKHNIEIEYVPRKSDAGISSADAPRKFNMKMISRDPPVATMTSKVYDPEQRKRMITGPQWWARCKQMNVLDSFINYYDSEKHAENAVIFLHGNAASSYLWRHVVPHIEPVARCIIPDLIGMGKSGKSGNGSYRLLDHYKYLTAWFELLNLPKKIIFVGHDWGACLAFHYSYEHQDKIKAIVHAESVVDVIESWDEWPDIEEDIALIKSEEGEKMVLENNFFVETMLPSKIMRKLEPEEFAAYLEPFKEKGEVRRPTLSWPREIPLVKGGKPDVVQIVRNYNAYLRASDDLPKMFIESDPGFFSNAIVEGAKKFPNTEFVKVKGLHFSQEDAPDEMGKYIKSFVERVLKNEQ
notes: also called hLingo-1-RLuc
As for B1, the binding result with DN-Lingo-1-HA and in the assay with Lingo-1-HA was “binds” throughout.
